This passage reports protease stability score results from the NTF2 design screens of Basanta et al. (2020).

The nature of this data set: protease stability score; higher = more stable; yeast display proteolysis, trypsin and chymotrypsin.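 Note: log10 excess protease needed over predicted unfolded state with 0 meaning unfolded.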
Sequence “DEHLQEVWENMLRAQENGDPDSFSRLVDPNVDFVYGDQTVHGREQAMTELKRRTDEIRFEIHHVDVRAQNGHIRVRIDQVKEHNGTPHREKTKNTIVADGDKVKSVEVRSDG” came in with a protease stability score of -0.256. “DHEVHKLFDDFLHAEETGNEEQLTELVDENAQIQVGDKEVHGRDHINKMHADLRRTMDLKLKDYKVNNNGNNVDVDMKYINEDNGKPSKVRMRAIYTFQNGRIKNVHQNRDQ” came in with a protease stability score of -0.366. Then “DDREIKELLQLMLDAIRDGNEQSASKMADENARVKVGDKKVHGREQIQELVKELKKNVDHFTVNDIKQQGDKASADAEMDVNGVTVHMEVRVQVHNGHVKHAEMTYRDEDQKRQFHQ”, with -0.433. In turn, “DEETAQKIVEKLATGDEEQKREQMDKDVTVVIGDKELRGRETIVNQLRKIRKQVDHLEVKTYSAHNGRAEIVMRMQVNGRTMEYSIRVQVHNGRIQHIKFRVRNHEVQELLDRLLS” had a protease stability score of 0.464.

As for “DEDKARRLAEKLFEYMMKGKKDEAKKFLDPDVRYEYVDETVEGPKVAEHVVRKIRKLGMKVETKEMEIRGDKARAVFVYRNGDNQVETTVEAQYEGDKLKEVRVELTDEVKKQVTQG”, the protease stability score stood at 0.804. The sequence “DERDVKRVEEWVKAEHTGDKDKMKELLDENAEIQIGDRSITGRETRAEELRKRQEQMRVRFRKVDFQHRNGQARVDMDVQNDHNGKPHTHRVDANFQLHNGKVQRVKMTSHK” yielded a protease stability score of 0.099. Then “DRHDMHKLEEIWKAIQTGDKDRVKELADPNAEFNVGDKTYHGMDQYITDLKKKRDQMRVHLELQSLDVKNGRARAVAVLRNEHNGTPDQRKFKVNATFRNGRLQHLKLQELS”, with 0.021; and “DKQDLDKLRELWEDELNGDHRSLREQVDPNAKVEIGDKEIHGRDDFAKDAKRRKEEIRVEMRVKSLSASGDTIDAKVHLDFKVNGKPIRLTVHMHVKVENGKFVDLNVRIDERQVRKIRK”, with 0.089; and “DENKLKEVANRIVSAVRTNDPDHLANLFDKDDKFQIGEKQFHGHEELRKALEEIHQEVDRLHVKTYELHNGVVKIHVDMKYNGHEIKVVFYFTVHNGRLKYMEVKSQ”, with -0.346. Then “DEDHNRRVAKRFIEAVLSGDPEQAKRNADKHVKLQVGDKEYRGRDDLKTWIEQVSTRADHNQIHSMSVSGNRMNVDVKFNHNGRRERTVIRVEVENGKVKKVEVHSG”, with 0.975. In the case of “EEEANRNVRKFEQALRHNDPHTLLELVDPNADLQIGNERIKGMHHAAKHLIDWMEEIRVQIRRVTFITRPNHAQLKRKVQAEVNGQPFEYTVEVVFNFHNGRVTEVHMRMDEDKQRKLRS”, the protease stability score worked out at 0.12.

Regarding “DEEEEHKFEDQVRTNDPDKQRKQLDKDVHVEYGDRTYHGRDAVDKWYKKMKKQVDHVHYHDIRIRNGHATLQNEANVNGRNVRMHVDIEVHNGRLKRMTINFRDEEDTKLFDRLVR”, the protease stability score was found to be 0.048.

In turn, “DDENVKKFAKELLHVIKDNDEDRFRKLAPPNVEAQYGDKTIRGRESAATQFSRVATRIDHVRLEHMTVQGEHVVMKMEVDVNGRNKQLRIVFHVRNGKITSFSMDPEAQRVNSQ” displayed a protease stability score of 0.594.

The sequence “EERANDAARRFLEAIDRNNPDEAVKNFDPNARFRYGDKTVTGRTEVQELLEHLLKQMRITIQSVRVDARGDKVTVHLTVVVDVNGQPERHEMTVIANIHNGRIKEMEVRVDPDEQRERKR” returned a protease stability score of 0.575. Then “DETREAQEIAKRIHKAVEENDEKQLEDQMPPDASVEVGDKTIHGRSRIARELWEEVETADHVNVSITSIRVDGDKVHVDMRYQFDDNGDDDVKHQKAQYVRNGDHFVLKNVHRK”, with -0.225; and “DDDQLDRNATQMMEALQTGDEQTLNNLVDPDVRFHIGDKVVHGRDQWNEQVKKIRDRADRIHIKHVEAQGDKVRMEFVLNINGRNIRVRMEAEVHNGRFKVITFDPEQVKEMRK”, with 1.19. Then “DEHNVRLAERLLHAIDTNDPKRVKEQVDKDVEYEVGDKRVHGRDDYIKQVETEIRQMSIHIQSMDIHSNGDKVNVRVTYTFTVDGRPQEDTVDYEVQFDNGKVRTVRNRFSEEQEERQKK”, with -0.245; and “DKKLSRQFREFWRAMEDGDPDKLRENADPNVKYVVGDKTIHGRETYVKEAQDRRREMRVELDTMSINDKGERITVEYVQVNEHNGRPKQAVYRQVILFKNGRIKEVRQTKTD”, with -0.073; and “DEKKALEIAEKVARYVAEGNSDKAKELGKEGVEAKVGDTTVHGPDQLKEYVKKVKDQGNRYEYKETHKEGNTVQFKTEVEKGNAKVEFTAEYQVEGDKLVRAEVRFNKEQQKKFQKS”, with -0.214. Then “DEDEERKVVHSIMHALEKGDEQKAVDLMDPNVKVIIGDKEISGRERVRDVAQELRKRIDHLRVKTLDVKNGQARAVAEVEHNGQERRIEFNMQLDNGRVKDMRIQER”, with 1.09; and “DESLAEQWMRDIKSNNEERFRRYVDPNVHADVGNFKVHGRHDLVEQLRKLLEQVDHLDYHSVSADGDDVTVDVVIDVNGNTVRYELIVRFHNGQAHSLQMHVTNPDQDRQLHEVVK”, with -0.013.

“EDHTLREFQKNWQHNNPDELEKMMDPNVKIVIGDKKYHGKEEAKRINKQIVDQADHIDIRRVEVSGNKLEIRMVLNVNGNTRELVVIFKLHNGRIKHVEFKFTDERQKNFQEEMLQ” returned a protease stability score of 1.08. With “DESAHKLVHDMMDAIRQNNPERVEQLADPNVKIEYGDEVIQGRENVSTTMKEILEKQRVEYNFKRVDDHNGQVRADVEVEVEHNGEPHRDKLIVHAERHNGRIRYVELQHDG” the figure was -0.174; with “DTEKTTELKKMFDHEQEGNENHLMRMFDPNATVQVGDKRIHGREDLQRWLDRFRKNQRVNVRSITVDVQGERFRVEVEADAKHNGRPNQMHRSMEVEFHNGRIKRADFQTDG”, 0.124. Then “DEKFKEAVERFIKALQDNNHKEMKDNADPNVKAQVGDSEVHGMDEMLRQLYKRYQELRVSYKHLSITVRGDKVEIRASVKLVHNGTPTEREVSVEVEAKNGRIKSMRINNTK”, with 0.493. In turn, “DEEDDRRTAKRFAENVMKGNQDEARKLADEDATVNVGDQHVHGREELARVMHDLRRQVDHIQLDSLEVQGNKADINVTMRVNGRHVTADITVTVHNGRVKQFSLNPEVAQEIKR” came in with a protease stability score of -0.345.

With “DHQVVRSFMDVLETGDWDKLKDLVDPNAKMFYGNKDLTGRDAQTHFSEVMKRRVDEIKIDSYDMKGDSAWADFVLVFNGVEIRFILRVQFHNGNVISMRFEVTDPKQKTQLDRAAS”, the protease stability score was 0.714. Then “EEREVEEMQKILQHGDPKEFEDNMDPNADVEIGDQQYRGRETIAQVLQKFRDQIDHRHIEEVHIHGDHAVIDVVATVNGQDLKYIIVVKVENGKLKSARLQATDPRVKHRMQEVYE”, with 0.32. With “DDRERAERYLRQVENALHTNDPRQLKNQADKDVKIEIGETDLHGTKDFVKMMKEIINRADHARFTVRSVRRHGDKMRVEFTAEVNHNGRRRTHTIRITLQLENGDVVLQSLRVE” the figure was 0.302; with “DKELRHSWEDQLRAEEEGDENRLRELIDPNASFVVGDKSIHGREQFADDMRRKLTEMRVEIKSYSVHAHNGHLDIKVHRRVNHDGEPKEDTYRADVQADNGRIVRVTIQSDG”, -0.652; with “DEDKHAHELAKKLQKVWEEGAEEKQQELVDEDDRKNIGEHTYNGEEQLRRDLDKLRKDADHVDMKLKQIRFQGDKARIDMVVSQTVNGKRNTDRFTVEARLNNGRLRIKQVTKN”, 0.813. Then “DEHKYRKLAEQINKALEDGDSREMMRLMDKDVKARYGDKTVHGRDDARKLFEDRQDHVDKIQVDDYRVDGDDITVVMTYNHNGRTTVQVLVFRLRNGRIKSASVHSQ”, with 0.998; and “DEDAEREIDRLVRDNNEEDIERLMPEDAKMQVGDKTVTGRENIATQIKRLNQKADHRRIDKITLQGERVVINFTIVVNGTKFKAKIVLHAHNGKIKVVVLRARDEDLDREMSKVMN”, with 0.028. Sequence “DEDDQKNFSQMLNALDTGDEKRVVELADPNAKVEYGDKTYSGMEKYAHDRAKQRKEWRYHQTIDKVNVKNGRVEIHMKANFKINGQPRSMRFSVTVEAHNGKLKNLDFRFSEEDRKKLEG” yielded a protease stability score of -0.024.

The sequence “DEKHLERQVDHFLDALHRGDEDEAVNLADPDVEFQVGDRTYHGKEQLKEWLKRLVDRVDHVDIKNITVSGDKVEVHADFSVDGRKETMTFTVRAHNGRIKHMTIDKG” had a protease stability score of 1.27. With “DSEKDKDWLRKLQSAVERNDPDSVMRLLDPNAEANYGDQTLHGREHIRKMFSELLKHADHVEVTDVRAHNGRLQLDVIMTINGRKSRYDLQFQFSNGRVKKVSVHSR” the figure was 1.26.

With “DEHLVEKVEEFLQNLQNNNEEEIQKQVDPNAKIDVGDKTVDGREEANKWAEELKDESRFEIKDVKYESHNGRVRANFTAQVDHNGRPETRKYDITFNWHDGVIKHIDNKTTS”, the protease stability score was determined as 0.403. Then “EEKIVDILERMVTALHTGDPDTVHENLDPNAHVVIGDKEFTGMDTMHRTLERQKKEIRIQINSYSVHAQGNKADIDIDMVNEHNGHPDRNRYRVDAKVHNGKIKQVRYEEVS”, with -0.38; and “DEKDVEKIMKKMDETFVKGNTEELEKLGKEDVEVQYGDKREKGPDAIRKVLEKVKQLGIKVEYKEVHIKGDTATVKVEADMAGQTARFEVTYVVRGNRVDRVVVKYDEEAQKVIKHG”, with 0.772; and “DKEEAKKILDKAVKAVENGNLEELKQMGKEGVEYELIDKKAHGPEVVHKVMEKLQRHGAELEFKRVQVEGDTVHTVVDYRVGDTEMRATAEATVQGGRIDKVRIEMSEEAQKTIKHG”, with -0.272. With “DTRAREVLEKFLKALNKGDPDKMKRQADPNAKFHIGDKQVHGMDQMKEQIRTNQRHMKIDVQVQEVQVRNGRVVARMEVRQTHNGQPTSDILVVEAEVKNGRIKSAHWEKSS” the figure was -0.414; with “DKEALRVFEKMLQAQRTGNPQEVRKQVDENARFQVGDKTIQGRERFAEDVDRQRKNMRLDYKHIDNKDHNGQAQADAKVRVNVNGRPIEHSAQFHFSAHNGKLVQLHVQMDEDVRRQIEK”, -0.233; with “DTEDLNRLANTMASAIHHNDPDKIVKMFDPNARARVGDKSYHGREDLRKMVNEWHRQADDIHIQQVQVHNGRAYINFVRNVNGVHADLTAIITIENGRAEKMTLTYRNPDDEKKVQG”, 0.279. Then “EEEKMEKLMKQLFDAVQKGDVDKFVKYLKEDVEFQFGDNRIKGVEEYKRTMEEMHKKGVQFEIKEAQNKDDTVKMRTVVHYGNQTFEVTAEATYDGGVLDKARVEVSEEAKEAFKKG”, with 0.992; and “DETAVHAARRYLHAVTEGDPDKVNEQVDPNAKLTYGDKEVHGSSQVKEEVETQNRHSRIQYDSVTFDHQGDKVRADIDMKQDSNGRPKRRKMVVDFRAHNGKLQHVNAQDDN”, with -0.224; and “DEEELQEMIHEFVKALETGNPDDIDKNADEDAKAVYGDKEVEGREQIKHQIKQLHDAIDHLEVKRVSFDNGRAHIHVEMTVNGERFTAKITVEAHNGKIKDVQFDPRLRNAYES”, with 0.81. Sequence “DQERNEQAKKLLDIINTGDEHKVKDMFDPNASIKVGDHTLHGREEIAKHYRREKDESRYQVDRVDFKAHGEKVRVSVKYTFRHNGKPLTATVEYNFRMHNGRIKDLSVRFDEQRQRDRDS” showed a protease stability score of 0.117.
